From US11015206B2, “Compositions and methods comprising sequences having hydroxyphenylpyruvate dioxygenase (HPPD) activity” (PIONEER HI-BRED INTERNATIONAL, INC., priority 2014, dated 2021)
Substitutions are numbered along the chain they refer to. Values belong to the molecule of their own block, whether it stands above or below them.

Columns and labels:
Format in all cases: biochemical, Z. mays
[1] = test system: 4-hydroxyphenylpyruvate dioxygenase (HPPD); experiment: ON rate ratio: HPPD reaction rate with vs without inhibitor in the 70 to 90 second interval; settings: for ON Rat. (ON ratio parameter): Megatable 2
Procedure, shortened: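 Indicator of inhibitor on-rate: reaction velocity in the 70 to 90 second window with 4 μM inhibitor divided by that without. Reactions contained 100 μM HPP and 60 or 120 nM HPPD; slower binding gives a larger ratio.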

[2] = test system: 4-hydroxyphenylpyruvate dioxygenase (HPPD); experiment: OFF rate ratio: release of inhibitor from pre-formed enzyme-inhibitor complex; settings: for OFF Rat. (OFF ratio parameter): Megatable 2
Procedure, shortened: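 Inhibitor release from pre-formed complex (enzyme 7.2 μM, inhibitor 8 μM, 1 h RT) tracked as accelerating HPPD activity at 320 nm over 12 min, coupled via 50 nM HGD with 100 μM HPP at pH 7. OFF rate ratio: steady-state velocity relative to uninhibited initial velocity.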

[3] = test system: 4-hydroxyphenylpyruvate dioxygenase (HPPD); experiment: Insensitivity parameter (ON × OFF) and trait fitness (ON × OFF × kcat/KM or × kcat); parameters: key to ON × OFF / Insensitivity, mesotrione, ON × OFF / Insensitivity, tembotrione, ON × OFF / Insensitivity, topramezone, ON × OFF / Insensitivity, sulcotrione, ON × OFF / Insensitivity, isoxaflutole (DKN), ON × OFF: insensitivity = ON rate ratio × OFF rate ratio (surrogate for KD); settings: for ON × OFF (product of ON ratio and OFF ratio) / ON × OFF kcat (product of ON ratio, OFF ratio and kcat) / Fold vs. wt (ON × OFF versus wild-type SEQ ID NO:1) / Fold vs. wt (ON × OFF × kcat versus wild-type SEQ ID NO:1): Megatable 2; for Fold vs. wt (ON × OFF versus wild-type SEQ ID NO:1): fold of ON × OFF; for Fold vs. wt (ON × OFF × kcat versus wild-type SEQ ID NO:1): fold of ON × OFF × kcat; for Fitness Fold vs Zm wt / Insensitivity parameter, ON × OFF / Insensitivity ON × OFF, Fold vs wt: mesotrione; for Insensitivity parameter, ON × OFF: Table 2; for Insensitivity ON × OFF, Fold vs wt: vs maize wild type
Procedure, shortened: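 Trait fitness combines catalysis and insensitivity as kcat/KM × ON rate ratio × OFF rate ratio. The insensitivity parameter is the product of ON and OFF rate ratios, used in place of KD because the ON rate ratio is inverse.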

[4] = test system: 4-hydroxyphenylpyruvate dioxygenase (HPPD); experiment: Estimate of kcat from initial rate at saturating hydroxyphenylpyruvate without inhibitor (ON rate ratio assay)
Procedure, shortened: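 kcat was estimated from the initial reaction rate with known enzyme level (60 or 120 nM HPPD). Hydroxyphenylpyruvate was at a saturating 100 μM, with no inhibitor present.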

[5] = test system: 4-hydroxyphenylpyruvate dioxygenase (HPPD); experiment: HPPD activity coupled assay with HGD; substrate saturation kinetic parameters (kcat, KM)
Description: Wild type and shuffled variant genes were cloned into pVER7062, a modified version of pET24a(+)(Novagen), which places six histidine residues at the N-terminus of the expressed protein. Vectors were electroporated into E. coli host strain BL21(DE3). Cells were grown at 30 C in rich medium such as 2×YT containing the selection antibiotic, kanamycin. At a density of about 0.6 OD600, IPTG was added to 0.2 mM, the temperature was reduced to 16 C and growth continued for another 24 hrs. Cells were harvested by centrifugation and stored at −80 C. Cell pellets were lysed in BPER (Pierce) protein extraction reagent containing 0.2 mg/ml lysozyme, 1 mM dithiothreitol, protease inhibitor cocktail (Sigma, bacterial cocktail) and endonuclease. Insoluble cellular debris was removed by centrifugation. HPPD protein was purified from the soluble protein solution by affinity chromatography on the nickel form of nitrilotriacetic acid (Ni-NTA) resin (Qiagen). Protein concentrations were determined by the Bradford method, as supplied by Bio-Rad.
HPPD catalyzes the conversion of 4-hydroxyphenylpyruvate (HPP) to homogentisate (FIG. 17). […] However, the product of the ensuing reaction in tyrosine metabolism, maleylacetoacetate, absorbs strongly at 320 nm. Furthermore, the enzyme catalyzing that reaction is also a dioxygenase having similar mechanism and buffer requirements as HPPD, making homogentisate dioxygenase (HGD) an ideal partner in a coupled assay, as shown.
The HDG gene from Pseudomonas aeruginosa (Amaya (2004) Arch Biochem Biophys 421, 135-142) was cloned into pVER7062 and electroporated into E. coli strain BL21(DE3). The enzyme was produced by methods similar to those described for HPPD. The purified enzyme has a KM for homogentisate of 23 μM and a kcat of 100/sec, properties highly suited for instantly converting the homogentisate produced by HPPD to maleylacetoacetate.
HPPD activity was measured by placing an aliquot (e.g., 6 μl) of the substrate HPP at 50-fold the desired final concentration into the wells of a low UV-absorbing assay plate. Reactions were started by adding a mixture (e.g., 294 μl) containing 25 mM Hepes, pH 7, 2 mM ascorbate, 10 μM FeSO4, 1 to 100 μM HPP, 50 nM HGD and 5 to 240 nM HPPD. Absorbance at 320 nm was monitored continuously in a plate-reading spectrophotometer (Spectramax, Molecular Devices).
The catalytic performance of wild-type HPPD and variants generated by shuffling was assessed by determining the substrate saturation kinetic parameters. The Michaelis-Menten kinetics protocol of the Spectramax software was customized for HPP concentrations ranging from 3.33 μM to 100 μM. Reaction rates were measured as described above for each concentration of HPP. The software returns values of KM and Vmax using the Lineweaver-Burke transformation of the Michaelis-Menten equation.

[6] = Megatable 2, single substitutions, positions numbered per SEQ ID NO:1
[7] = Table 2, E. coli purified proteins
[8] = Table 7, tembotrione, combinatorial variants
[9] = Table 7, combinatorial variants

B3: R8-1973: Round 8, variant 1973 (SEQ ID NO:8), 26 amino acid substitutions relative to native maize HPPD (protein)
chain: MGPTPTATAAGAAVAAASAAEQAAFRLVGHRNFVRFNPRSDRFQTLAFHHVELWCADAASAAGRFSFALGVPLAARSDLSTGNSAHASLLLRSGSLSLLFTAPYAHGADAATAALPSFSAAAARRFAADHGLAVRAVALRVADAEDAFRASVAAGARPAFGPVDLGRGFRLAEVELYGDVVLRYVSYPDGAAGEPFLPGFEGVASPGAADLGLNRFDHIVGNVPELAPAAAYMAGFTGFHEFAEFTTEDVGTTESGLNSMALANNSENVLLPLNEPVHGTKRRSQIQTFLDHHGGPGVQHIALASDDVLRTLREMRARSAMGGFEFLPPPLSDYYDGVRKCAGDVLTEAQINECQELGVMVDRDDEGVLLQIFTKPVGDRPTFFLEIIQRIGCREKDEKGQEYQKGGCGGFGKGNFGQLFKSIEDYEKSLEKKRAAAAATAQGS
modifications: Zea mays variant form created by artificial means.
Km [5, 7]: 2 µM
kcat [5, 7]: 1.18 s⁻¹
ON rate ratio ([1]; mesotrione): 0.73
OFF rate ratio ([2]; mesotrione): 1.00
Fitness Fold vs Zm wt [3]: 12.2
Insensitivity parameter, ON × OFF [3]: 0.73
Insensitivity ON × OFF, Fold vs wt [3]: 11.9

B4: P056028-G-07 (protein)
chain: B3 chain with P206Q, L211Y, N214S, E356R, R394M, K432A, R434Q
modifications: Zea mays variant form created by artificial means.
ON rate ratio [1, 8]: 0.702
OFF rate ratio [2, 8]: 0.304
ON × OFF ([3]; Megatable 3, shuffled variants): 0.213
ON × OFF × kcat ([3]; Megatable 3, shuffled variants): 3.23
ON × OFF [3, 8]: 0.213
ON × OFF × kcat [3, 8]: 3.23
kcat ([4]; Megatable 3, shuffled variants): 0.255 s⁻¹
kcat [4, 9]: 0.255 s⁻¹

B5: P056028-G-08 (protein)
chain: B3 chain with N214S, E356K, R394M, K432A, R434Q
modifications: Zea mays variant form created by artificial means.
ON rate ratio [1, 8]: 0.737
OFF rate ratio [2, 8]: 0.379
ON × OFF ([3]; Megatable 3, shuffled variants): 0.279
ON × OFF × kcat ([3]; Megatable 3, shuffled variants): 3.29
ON × OFF [3, 8]: 0.279
ON × OFF × kcat [3, 8]: 3.29
kcat ([4]; Megatable 3, shuffled variants): 0.197 s⁻¹
kcat [4, 9]: 0.197 s⁻¹

B6: SEQ ID NO:78: improved shuffled variant of maize HPPD (protein)
chain: MGPTPTATAAGAAVAAASAAEQAAFRLVGHRNFVRFNPRSDRFHTLAFHHVELWCADAASAAGRFSFALGAPLAARSDLSTGNSAHASLLLRSGSLSFLFTAPYAHGADAATAALPSFSAAAARRFAADHGLAVRAVALRVADAEDAFRASVAAGARPAFGPVDLGRGFRLAEVELYGDVVLRYVSYPDGAAGEPFLPGFEGVASPGAADYGLSRFDHIVGNVPELAPAAAYFAGFTGFHEFAEFTTEDVGTAESGLNSMALANNSENVLLPLNEPVHGTKRRSQIQTFLDHHGGPGVQHIALASDDVLRTLREMQARSAMGGFEFLPPPPSDYYDGVRRCAGDVLTEAQINECQELGVMVDRDDQGVLLQIFTKPVGDRPTFFLEIIQRIGCMEKDEKGQEYQKGGCGGFGKGNFGQLFKSIEDYEKSLEAKQAAAAATAQGS
modifications: Zea mays variant form created by artificial means.
kcat ([5]; text b374): about 220 min^−1
time span to reach the steady state (dissociation from inhibitor) ([2]; mesotrione, enzyme 240 nM): 80 s

B7: P056028-G-09 (protein)
chain: B3 chain with P158K, L211Y, N214S, K340R, R394V, K432A, R434Q
modifications: Zea mays variant form created by artificial means.
ON rate ratio [1, 8]: 0.716
OFF rate ratio [2, 8]: 0.385
ON × OFF ([3]; Megatable 3, shuffled variants): 0.275
ON × OFF × kcat ([3]; Megatable 3, shuffled variants): 4.37
ON × OFF [3, 8]: 0.275
ON × OFF × kcat [3, 8]: 4.37
kcat ([4]; Megatable 3, shuffled variants): 0.263 s⁻¹
kcat [4, 9]: 0.263 s⁻¹

B9: R6-9075: shuffled maize HPPD variant 9075, SEQ ID NO:79; 9070 with R316 changed to Q (protein)
chain: B6 chain with H44Q, A71V, F98L, F233M, A253T, P331L
modifications: Zea mays variant form created by artificial means.
notes: 9070 with R316 changed to Q
Km [5, 7]: 4 µM
kcat [5, 7]: 1.9 s⁻¹
ON rate ratio ([1]; mesotrione): 0.68
OFF rate ratio ([2]; mesotrione): 0.68
Fitness Fold vs Zm wt [3]: 6.4
Insensitivity parameter, ON × OFF [3]: 0.46
Insensitivity ON × OFF, Fold vs wt [3]: 7.6

Second part, led by results:

ON Rat. (ON ratio parameter) [1]: 0.17
OFF Rat. (OFF ratio parameter) [2]: 0.03
ON × OFF (product of ON ratio and OFF ratio) [3]: 0.0051
Fold vs. wt (ON × OFF versus wild-type SEQ ID NO:1) [3]: 1.00
B1: SEQ ID NO 1 (protein)
chain: MGPTPTAAAAGAAVAAASAAEQAAFRLVGHRNFVRFNPRSDRFHTLAFHHVELWCADAASAAGRFSFGLGAPLAARSDLSTGNSAHASLLLRSGSLSFLFTAPYAHGADAATAALPSFSAAAARRFAADHGLAVRAVALRVADAEDAFRASVAAGARPAFGPVDLGRGFRLAEVELYGDVVLRYVSYPDGAAGEPFLPGFEGVASPGAADYGLSRFDHIVGNVPELAPAAAYFAGFTGFHEFAEFTTEDVGTAESGLNSMVLANNSENVLLPLNEPVHGTKRRSQIQTFLDHHGGPGVQHMALASDDVLRTLREMQARSAMGGFEFMAPPTSDYYDGVRRRAGDVLTEAQIKECQELGVLVDRDDQGVLLQIFTKPVGDRPTLFLEIIQRIGCMEKDEKGQEYQKGGCGGFGKGNFSQLFKSIEDYEKSLEAKQAAAAAAAQGS
modifications: Zea mays
ON × OFF kcat (product of ON ratio, OFF ratio and kcat) [3]: 1.07
Fold vs. wt (ON × OFF × kcat versus wild-type SEQ ID NO:1) [3]: 1.00
kcat [4, 6]: 3.5 s⁻¹

ON rate ratio ([1]; mesotrione): 0.20
OFF rate ratio ([2]; mesotrione): 0.007
Fitness Fold vs Zm wt [3]: 0.02
Insensitivity parameter, ON × OFF [3]: 0.0014
Insensitivity ON × OFF, Fold vs wt [3]: 0.023
B2: G. max wt: wild-type HPPD enzyme from soybean (protein)
chain: MPMYTPSLSAPSSNHIQPSVTLPLYITTTKLNLKQQHHTTPMPIPMCNEIQAQAQAQAQPGFKLVGFKNFVRTNPKSDRFQVNRFHHIEFWCTDATNASRRFSWGLGMPIVAKSDLSTGNQIHASYLLRSGDLSFLFSAPYSPSLSAGSSAASSASIPSFDAATCLAFAAKHGFGVRAIALEVADAEAAFSASVAKGAEPASPPVLVDDRTGFAEVRLYGDVVLRYVSYKDAAPQAPHADPSRWFLPGFEAAASSSSFPELDYGIRRLDHAVGNVPELAPAVRYLKGFSGFHEFAEFTAEDVGTSESGLNSVVLANNSETVLLPLNEPVYGTKRKSQIETYLEHNEGAGVQHLALVTHDIFTTLREMRKRSFLGGFEFMPSPPPTYYANLHNRAADVLTVDQIKQCEELGILVDRDDQGTLLQIFTKPVGDRPTIFIEIIQRIGCMVEDEEGKVYQKGACGGFGKGNFSELFKSIEEYEKTLEAKRTA
modifications: Glycine max
notes: wild-type HPPD enzyme from soybean
Km [5, 7]: 3 µM
kcat [5, 7]: 1.67 s⁻¹

ON Rat. (ON ratio parameter) [1]: 0.74
OFF Rat. (OFF ratio parameter) [2]: 0.21
ON × OFF (product of ON ratio and OFF ratio) [3]: 0.15
Fold vs. wt (ON × OFF versus wild-type SEQ ID NO:1) [3]: 30.0
B8: SEQ ID NO 2 (protein)
chain: B6 chain with H44Q, A71V, F98L, F233M, A253T, Q316R, P331L
modifications: Zea mays variant form created by artificial means.
ON × OFF kcat (product of ON ratio, OFF ratio and kcat) [3]: 5.25
Fold vs. wt (ON × OFF × kcat versus wild-type SEQ ID NO:1) [3]: 4.90
kcat [4, 6]: 0.57 s⁻¹
